Literature values in publication PMC3773255.

Molecular target: E-cadherin EC1-2 (UniProt P12830)

In the case of E-cadherin EC1-2 (from UniProt P12830), the Kd is listed as 97 µM.
